experiment: soluble on expression in E. coli; label from the status in PepcDB or PDB records

| Sequence | soluble on expression in E. coli |
| --- | --- |
| MSLALIVQKFGGSSVGSVERIQAVAQRVYKTVKAGNSLVVVVSAMGKTTDGLVKLANEISRNPNRREMDMLLSTGEQVTIALLSMALQELGQPAISMTGAQVGIVTEAEHTRARILHIETERVEGHIKEGKVVVVAGFQGISSNGSLEITTLGRGGSDTSAVALAAALQADFCEIYTDVPGILTTDPRIVPEAQLMGEITCNEMLELASLGAKVLHPRAVEIARNYGMPLVVKSSWTDDPGTWVTTPKPQGRSLINLELARPVDDVELDTDQAKVALLRVPDKPGVAAKLFGEISRQKVDVDLIIQSIHEGNSNDIAFTVTTPILKRAEAVAAAIAPSLRSPSHPKSDEAEVMVEQNIAKVSIAGAGMIGRPGVAAQMFATLAEAGVNIQMISTSEVKVSCVIDAQDGDRAIIALRKAFEIETPLHSQLPTPSSLSTHNSPPVRGVALDLNQARLAIRQVPDRPGMAAQLFGILSQHNISVDMIIQSQRCRIVDGVPRRDIAFTVPRMDGETAQKLLCQVAPELGWGDVVLDSAIAKVSIVGAGMVGQPGVAAKMFEALAKHQINIQMIATSEIKISCVVSQEQGVQALQVIHTAFELAGTEKFVVPAEGHHHHHH | not soluble |
| MSWSLLSNIIKKFTLLHHFQPIGYIYKYIHICTLNHSLGSCVLQANYSIQNNLRSRTLFIQSEITYSHSLESTHFFGILIFFNIKFRVFNRINDPWTVLDNVPEVMFHDRFFINDFTFWVDVLQEAFRMRRWIFRFEQLVVNPSFSNSQWRIIF | soluble |
| MGSDKIHHHHHHMPTVLALETSCDESAAAVLRLNNGCLQVIASRIASQVEKHAQWGGVVPEVASRLHVEALPHLVEEVLQEAGQSMARFDAVAATVTPGLAGALMVGSVTGRSLAALHALPFFGIHHLEGHLASVRLAEHPPRPPYLVLLVSGGHTELIRVGAESEMVRLGRSHDDAAGEAFDKVGRLLGLAYPGGPAIQALAATGDSGRFSLPKGRVSKPGGGFHPYDFSFSGLKTAMLRLVQALSEADEDLPRADLAASFEQVVADVLVERSLLCANDQGLKTVVMVGGVAANRRLRELMSKRGQEQGIEVHTAPLRYCTDNAAMIGAAALQRLVSGVNGSSLELGVAARWPLDKTEVLYHSPPPF | not soluble |
| MSLNRQSKAAVPALREISPVKQQVSEEKKEIQEDSSILVDLKGAVQKEGVYKLTASSRVRDVIELAGGLTSEADKHAINFAEKLTDEQVVYVPKQGEEISVLPRSLVSGKKETASKDQSKVHINKASLEELQHIPGIGAKRAQDIIDMRDKLGGFKALEDLRQVSGIGEKTLEKLKDDIFLDEGHHHHHH | soluble |
| HQIGEDTYIVQGTMTLNDFNNYFDVELESDDVDTIAGYYLTGVGTIPTTEKLSYELVSQNKQFILTNDKVKNGRVTKVKVQITEVEIEEETE | not soluble |
| MSLNPPYTIVFALYPGVTQLDFTGPLEFLSKLPHARCVLASSRGEDIRADGGIVFADIARLGAIERCDLLLVPGGLGTIEAMEDAELLAQLRRLAASADYVSSVCTGSLLLGAAGLLKGRRAACHWAWLDSLAAFGAQPCPDRVVVDGKLISGGGVTAGIDMALTLMAEIAGPQFAQTAQLTLEYAEGHHHHHH | not soluble |
| MSLKKGYELLIFDWDGTLADSIGRIVEAMNVAAERAGEAQSSDAAVKGIIGLALDEAIHTLYPHLAPAEVASFRQHYADVYVALDQQPSPLFDGVVESLDAFRAEGYRLAVATGKARRGLDRVLKANGWERFFDITRAADETRGKPHPLMLEEILGHCGVEPSRALMVGDSAFDLQMASNAGMHSVAVGYGAMSLQALAEFGPQVCIDHFSQLREWLGGSAIPLPREGHHHHHH | soluble |
| MTVNDKKRLAIIGGGPGGLAAARVFSQSLPNFEIEIFVKDYDIGGVWHYPEQKSDGRVMYDHLETNISKKLMQFSGFPFEENVPLYPSRRNIWEYLKAYYKTFIANKDAISIHFSTEVTYLKKKNSQWEITSKDELRTTKSDFDFVIVASGHYSVPKLPTNIAGLDLWFDNKGAFHSKDFKNCEFAREKVVIVVGNGSSGQDIANQLTTVAKKVYNSIKEPASNQLKAKLIETVQTIDSADWKNRSVTLSDGRVLQNIDYIIFATGYYYSFPFIEPSVRLEVLGEGVTGDKHSSVNLHNLWEHMIYVKDPTLSFILTPQLVIPFPLSELQAAIMVEVFCKSLPITTTFDSNACGTHNFPKERTWNTMQNYRNY | soluble |
| MAHHHHHHMAEHLLEQLRDVMVLQPSDGAVGNGEMDTSAANSHKYSVVSTFTNSPFVAVLEDTENNEDDEKELIRLLDELSHRIHCSDAADDVERPSGSFAVEKVEAPTLRASHMAPPIYGSPAPAGGSPFNYASCVSQTTKPPPSFAEAVATTPPLSEVPVELSPLAAHYVPPMPAVQQDPILLRNTHGVFMLRPITKPTPPYTPPSLTSSISQPPRYALPPAALPQSQPHFLGSSLAQVGGLADAQIPKKSSFSPYEIPHSMNNVIGGSQILGTGGAGNYTYISTSVKSKSTSHMQPPPPYPS | not soluble |
| MTIIKLERRDVRLLLLYEFRLGHSAMEAERNICGAMGEGALSYNTAKSWFQKFKNGDFSLEEIERSGRPVELNEEDLVKLVEEEPRLSLREMEEKLECCHSTIARHLGRLGFTSKLGIWVPHELSASQKLTRVNVCTQLLTFRRKFDWLNNLVTGDEKWVLYVNHSRKRQWLPIGEKGIPTPKPDLHPKKIMICVWWGVQGPVHWELLPTNKTITADYYCAQLDRVAEKTNGKYEKLYFLHDNARPHVAKKTFQKLQDLGWTVLPHPPYSPDLAPTDYHLFLSLSDYMRDKQFDDEEHLKTELSTFFSSRSPDFFSRGIMMLPSKWQQVVDTNGEYLCE | not soluble |
| MDVLSGTQVTDPEQLIVNREEVDDIELKMAELLSDLERKVLALYLDGRSYQEISEELNRHVKSIDNALQRVKRKLEKYLEYREISL | not soluble |
| MGSDKIHHHHHHMKFAVSSKGDQVSDTLKSKIQAYLLDFDMELDENEPEIVISVGGDGTLLYAFHRYSDRLDKTAFVGVHTGHLGFYADWVPHEIEKLVLAIAKTPYHTVEYPLLEVIVTYHENEREERYLALNECTIKSIEGSLVADVEIKGQLFETFRGDGLCLSTPSGSTAYNKALGGAIIHPSIRAIQLAEMASINNRVFRTVGSPLLLPSHHDCMIKPRNEVDFQVTIDHLTLLHKDVKSIRCQVASEKVRFARFRPFPFWKRVQDSFIGKGE | not soluble |
| MVSSQPKYDLIREVGRGSYGLVYEALVRRTGQRVAVKKIRCQAPENVELALREFWALSSIQSQHPNVIHLEECVLQRDGMVQRMLHGSSSVLYLP | not soluble |
| IVSREAKLQFAYLENFKTKMRSTVSVREGQGVVLLCGPPPHSGELSYAWIFNEYPSFVEEDSRRFVSQETGHLYISKVEPSDVGNYTCVVTSMVTNARVLGSPTPLVLRSDGVMGEYEPKIEVQFPETLPAAKGSTVKLECFALGNPIPQINWRRSDGLPFSSKIKLRKFSGVLEIPNFQQEDAGSYECIAENSRGKNVARGRLTYYAKPHWVQLIKDVEIAVEDSLYWECRASGKPKPSYRWLKNGAALVLEERTQIENGALTISNLSVTDSGMFQCIAENKHGLVYSSAELKVVASAPDFSKNPMKKLVQVQVGSLVSLDCKPRASPRALSSWKKGDVSVQEHERISLLNDGGLKIANVTKADAGTYTCMAENQFGKANGTTHLVVTEPTRITLAPSNMDVSVGESVILPCQVQHDPLLDIIFTWYFNGALADFKKDGSHFEKVGGSSSGDLMIRNIQLKHSGKYVCMVQTGVDSVSSAADLIVRGSPGPPENVKVDEITDTTAQLSWKEGKDNHSPVISYSIQARTPFSVGWQTVTTVPEVIDGKTHTATVVELNPWVEYEFRVVASNKIGGGEPSLPSEKVRTEEAVPEVPPSEVNGGGGSRSELVITWDPVPEELQNGEGFGYVVAFRPLGVTTWIQTVVTSPDTPRYVFRNESIVPYSPYEVKVGVYNNKGEGPFSPVTTVFSAEEEPTVAPSQVSANSLSSSEIEVSWNTIPWKLSNGHLLGYEVRYWNGGGKEESSSKMKVAGNETSARLRGLKSNLAYYTAVRAYNSAGAGPFSATVNVTTKKTPPSQPPGNVVWNATDTKVLLNWEQVKAMENESEVTGYKVFYRTSSQNNVQVLNTNKTSAELVLPIKEDYIIEVKATTDGGDGTSSEQIRIPRITSMDARGSTSAISNVHPMSSYMPIVLFLIVYVLW | soluble |
| MAFKNTKTLVFVLDGKLRNIPIAALFDGQQYLIEKYAVALSPGLQLMAAQSLEQNKIKAIVAGISESRSGFAALPAVESEVKQISQTIPSSMLLNQKFTSQALADRIKSSRADVVHLATHGQFSSRIEDTFLLTWDGQVNVKDLSELLKNRSGDSSKAIELLVLSACDTATGDDRAVLGLAGLAVKSGARSTIATLWPVKDKAAEMLMTRFYDQLRKPKITKAEALRQAQINLIHQTDFQDPFFWSAFVLVGNWLLEHHHHHH | not soluble |
| HGTSDATLLKGVGHLYGTALPVGGLGTRSVLTAHSGIQKSTFFDNLEKVKKGDAIYVRNIGETLKYQVRDIEIIRPAEIDRIQPIPDRDLITLVTCTPYGINTHRLLVTAERVPMEPGEADRAFAGDGIVWQWWMK | not soluble |
| SGQLLPQGAYREVPQYWKQAAELINREGAHTRTLVLPAASFARQTWGWTRDEPLQPLLQVPWVVRDAVPLVPPETIRGLDGVLSVVDKGAVDHLGDQLRRIGVGIVVIRHDLVAPHSGDATLTLMRSEFPDIKVHTFGSGKERVDVAILDRQAHGYLTDKLTRVAGGGEALSLLGPGDFILSDSDAEIVTDTPMLAARNYGAARRAISAPLATEAEGKDVGNPVRDYPSAARATRVVERGGHVVASSSAADATAFGGADPTRSITAAVDNDPDTAWFAAPGDRHPWLELQAESPDPHLELRITGKAGKVIIRSNNAHVAADMRPGVPTTIRIPGGATNRVRIEVAPGMGIASAQLIHSPITRVPTLPPAGPSAHTFLFQKVMVDTGLLTRGFETARPIEVTLSASHCERTITIDQVTYACGERFLLPAGYHELSTRSDWVRLSGDGKAGFVDLNGDSVFVTTQAANRGMRAFIGDHELTPISVNAGGQGFIVPKALATDDVLDVIRFEFAGEHTYRR | not soluble |
| MWGRYEKLRIFYDPTRAIYDSGADYLTREKHRLVVIANSAWGLLLNLSCYYDEVLEKRKIPFGKQEIDDDMDKVSALKRKFKDISEIKVGDGWEYPFNYEQGMKELDEVLLKYIPFFEEER | not soluble |
| MPLNHYQQEVGPSLADTSPGKMPDVALLEGRYCSVEHLTVAEHYEDILDFYFTNQILSDWTYMYADPFESEEAVRQCLEDYEQSQNPYFFAIRDKASGKVLGTFSLMAITPKNRSVEMGRVILAPALQKTRAATEAQYLLMKYVFEDLNYRRYEWKCDKSQPPFCQCSHSFRVHL | not soluble |
| MSLRIPDKNNLMIYELLLRDFTATGDLNGAMEKIGYLKSLGFNAVELMPVQEFDGNDSWGYNPCFHFALDKAYGTDHMYKAFIDKCHEVGMAVLFDVVYNHASGSHPFARLYWDTKNNRTAADNPWFNVKEPHPYGVFHDFNHDSPLVRAFVKRNLKFLLEEYRIDGFRFDMTKGFTQNSSTEATAGSYDASRIAILKDYNETVREVNPEAVVILEHFCDEKEESELAEEGMQLWRNLNNAYCQSAMGYPSNSDFTPLVTFGTTMPYGGWVGFMESHDEERTAFKQIAYGEGPLKSDINVRMKQLAANASFFFTAPGPKMVWQFGEMGYDVSIEEGGRTGRKPLHWEYLDNEARKGLCNTYAKLLKLRREHSELFNPGSTFSWLVKTANWTGGRFLTLAATNGKRLVVVGNFTAKPIEAITSFPVTGVWTNYLDGTKLHVTSIPTGLMIPAHECRVYINEGHHHHHH | not soluble |
| EIGEPDVTDATLGSVYSEIISPVKDCILTVAKAVSFNPGGKDNTDAVEVLTELNTKVERAALNQPILTTKTER | soluble |
